± gives the uncertainty stated by the source.
Test: self-splicing fitness, log relative to wild type (ln ratio); higher = more splicing; Tetrahymena group I intron in knt gene, E. coli kanamycin selection, DiMSum; sequences stand for … in CUCUCU…GGAGGGAAAAGUUAUCAGGCAUGCACCUGGUAGCUAGUCUUUAAACCAAUAGAUUGCAUCGGUUUAAAAGGCAAGACCGUCAAAUUGCGGGAAAGGGGUCAACAGCCGUUCAGUACCAAGUCUCAGGGGAAACUUUGAGAUGGCCUUGCAAAGGGUAUGGUAAUAAGCUGACGGACAUGGUCCUAACCACGCAGCCAAGUCCUAAGUCAACAGAUCUUCUGUUGAUAUGGAUGCAGUUCACAGACUAAAUGUCGGUCGGGGAAGAUGUAUUCUUCUCAUAAGAUAUAGUCGGACCUCUCCUUAAUGGGAGCUAGCGGAUGAAGUGAUGCAACACUGGAGCCGCUGGGAACUAAUUUGUAUGCGAAAGUAUAUUGAUUAGUUUUGGAGUACUCGUGGUCG
In short: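 Six replicate transformations of E. coli BL21(DE3) with a pET-22b(+) library were grown overnight at 37°C or 30°C. The library randomised all eight P1ex-region intron nucleotides, the intron lying in the knt kanamycin-resistance gene, and plates were LB agar with or without 25 μg/mL kanamycin plus 100 μg/mL carbenicillin, 50 μM IPTG and 0.2% rhamnose. Pooled colonies were amplicon-sequenced on an Illumina HiSeq 2500, and fitness is the DiMSum error-weighted combination of wild-type-normalised replicate fold changes, kanamycin versus none.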

| Sequence | self-splicing fitness (ln) (30 °C) | self-splicing fitness (ln) (37 °C) |
| --- | --- | --- |
| AUGCAGCAAUAUUACGUAGC | -3.81 ± 0.37 | -2.34 ± 0.24 |
| GAGUAGCAAUAUUACGAAGA | -2.63 ± 0.3 | – |
| AGACAGCAAUAUUACGGUGA | -1.49 ± 0.074 | -0.921 ± 0.095 |
| CUGCAGCAAUAUUACGAUAA | -3.39 ± 0.28 | -3.1 ± 0.28 |
| CCGAAGCAAUAUUACGAGUA | -2.42 ± 0.2 | -2.92 ± 0.23 |
| UAAAAGCAAUAUUACGUCAA | -1.57 ± 0.11 | -1.4 ± 0.098 |
| GCCUAGCAAUAUUACGUCAU | -2.73 ± 0.2 | -1.4 ± 0.17 |
| AUGUAGCAAUAUUACGGAGG | -3.57 ± 0.23 | -2.57 ± 0.23 |
| UUCUAGCAAUAUUACGGCAA | 0.293 ± 0.1 | 0.334 ± 0.11 |
| CGCCAGCAAUAUUACGCUGA | -3.51 ± 0.24 | -2.24 ± 0.28 |
| CCAGAGCAAUAUUACGCUUA | -3.34 ± 0.43 | – |
| UACCAGCAAUAUUACGUUGU | -3.56 ± 0.12 | -2.66 ± 0.12 |
| ACGAAGCAAUAUUACGACAA | -0.701 ± 0.2 | -0.985 ± 0.19 |
| GCGGAGCAAUAUUACGAGGA | -2.26 ± 0.47 | -2.66 ± 0.37 |
| UCAUAGCAAUAUUACGUAGC | -4.12 ± 0.3 | -0.156 ± 0.15 |
| GACGAGCAAUAUUACGAACC | -3.09 ± 0.18 | -0.495 ± 0.13 |
| GCAGAGCAAUAUUACGCCUU | – | -2.46 ± 0.33 |
| CACUAGCAAUAUUACGCAUG | -1.95 ± 0.13 | -1.75 ± 0.21 |
| GAGUAGCAAUAUUACGUGUG | -2.73 ± 0.11 | -1.87 ± 0.12 |
| UGCCAGCAAUAUUACGCAAA | -2.41 ± 0.19 | -1.5 ± 0.17 |
| CCAUAGCAAUAUUACGAAGA | -3.41 ± 0.29 | -2.91 ± 0.34 |
| AUACAGCAAUAUUACGGAAG | -3.36 ± 0.14 | -2.21 ± 0.14 |
| AUAGAGCAAUAUUACGGAUG | -1.43 ± 0.12 | -2.91 ± 0.31 |
| AUUCAGCAAUAUUACGCCCU | 0.164 ± 0.13 | 0.287 ± 0.21 |
| CGGGAGCAAUAUUACGUCGU | -3.3 ± 0.26 | -2.35 ± 0.3 |

| Sequence | self-splicing fitness (ln) (30 °C) | self-splicing fitness (ln) (37 °C) |
| --- | --- | --- |
| AGCUAGCAAUAUUACGUGAU | -3.09 ± 0.15 | -1.79 ± 0.15 |
| UGAUAGCAAUAUUACGUCAC | -4.14 ± 0.22 | -2.81 ± 0.22 |
| GGACAGCAAUAUUACGCCUU | -0.676 ± 0.057 | -0.194 ± 0.069 |
| AUCGAGCAAUAUUACGUUAC | -3.04 ± 0.28 | -1.82 ± 0.27 |
| AUUCAGCAAUAUUACGCGCC | -1.17 ± 0.15 | 0.194 ± 0.21 |
| UAAGAGCAAUAUUACGUUGC | -2.74 ± 0.29 | -2.32 ± 0.4 |
| GCAAAGCAAUAUUACGGGUA | -1.55 ± 0.11 | -0.7 ± 0.097 |
| UAAGAGCAAUAUUACGUCGC | – | -3.39 ± 0.37 |
| UGCAAGCAAUAUUACGCGAG | -3.25 ± 0.15 | -2.36 ± 0.16 |
| GACCAGCAAUAUUACGAUGU | -0.366 ± 0.055 | 0.0308 ± 0.072 |
| ACGGAGCAAUAUUACGAGAU | -3.66 ± 0.21 | 0.0618 ± 0.16 |
| UCCUAGCAAUAUUACGCUUA | -2.77 ± 0.23 | -3.22 ± 0.35 |
| AGUGAGCAAUAUUACGAUGG | -3.11 ± 0.24 | -2.26 ± 0.25 |
| UUUCAGCAAUAUUACGUACG | -0.905 ± 0.12 | -0.18 ± 0.11 |
| AACGAGCAAUAUUACGACUU | -0.000737 ± 0.11 | -0.7 ± 0.12 |
| UUCCAGCAAUAUUACGAGGC | -3.72 ± 0.35 | -2.58 ± 0.27 |
| UCCGAGCAAUAUUACGUACC | -2.2 ± 0.2 | -1.93 ± 0.37 |
| UAUAAGCAAUAUUACGCCUC | -2.74 ± 0.38 | -2.08 ± 0.36 |
| UUUCAGCAAUAUUACGCGGC | -2.67 ± 0.25 | -1.74 ± 0.27 |
| UCACAGCAAUAUUACGCUUC | -4.3 ± 0.43 | -3.28 ± 0.43 |
| CCCAAGCAAUAUUACGUUGG | -3.48 ± 0.14 | -2.28 ± 0.13 |
| GUUGAGCAAUAUUACGCACG | -3.13 ± 0.43 | – |
| AAAAAGCAAUAUUACGUGCU | -1.68 ± 0.076 | -0.538 ± 0.079 |
| GCCAAGCAAUAUUACGUAAU | -1.11 ± 0.062 | -0.183 ± 0.074 |
| UUCAAGCAAUAUUACGUGAC | -4.47 ± 0.39 | -2.69 ± 0.27 |

| Sequence | self-splicing fitness (ln) (30 °C) | self-splicing fitness (ln) (37 °C) |
| --- | --- | --- |
| CUUCAGCAAUAUUACGGCUA | -3.01 ± 0.2 | -2.06 ± 0.24 |
| CCGAAGCAAUAUUACGUUUC | -3.56 ± 0.24 | -2.84 ± 0.19 |
| UCUUAGCAAUAUUACGUCUC | -3.09 ± 0.3 | -2.39 ± 0.39 |
| UCGAAGCAAUAUUACGUUUG | -2.67 ± 0.13 | -1.88 ± 0.15 |
| AACUAGCAAUAUUACGCUCG | -0.797 ± 0.1 | -0.51 ± 0.13 |
| GUAUAGCAAUAUUACGGGGU | -4.08 ± 0.27 | -1.4 ± 0.14 |
| UAUGAGCAAUAUUACGGCGC | -3.47 ± 0.48 | -1.46 ± 0.29 |
| UUGAAGCAAUAUUACGGGAU | -2.63 ± 0.14 | -1 ± 0.14 |
| AACCAGCAAUAUUACGAAAG | -3.21 ± 0.16 | -1.99 ± 0.19 |
| AGUCAGCAAUAUUACGCGAG | -1.57 ± 0.16 | -0.523 ± 0.16 |
| AAAUAGCAAUAUUACGACCG | -0.956 ± 0.15 | -0.441 ± 0.19 |
| AACGAGCAAUAUUACGAGGC | -2.92 ± 0.29 | -2.97 ± 0.48 |
| ACGUAGCAAUAUUACGACGG | -0.92 ± 0.11 | -0.526 ± 0.13 |
| CUGUAGCAAUAUUACGGGGU | -2.96 ± 0.34 | -2.82 ± 0.36 |
| UGAGAGCAAUAUUACGGACG | -1.67 ± 0.28 | -0.294 ± 0.41 |
| CGAGAGCAAUAUUACGUCCA | – | -3.02 ± 0.43 |
| UCCAAGCAAUAUUACGCACU | -2.28 ± 0.15 | -0.918 ± 0.14 |
| UCUAAGCAAUAUUACGGAAA | -2.93 ± 0.28 | -1.9 ± 0.27 |
| UCAAAGCAAUAUUACGCGCG | -0.683 ± 0.082 | 0.256 ± 0.097 |
| GUGGAGCAAUAUUACGCUUC | -3.26 ± 0.2 | -3.69 ± 0.42 |
| GCGCAGCAAUAUUACGUACG | -3.47 ± 0.2 | -1.09 ± 0.16 |
| AGUCAGCAAUAUUACGAGCC | -0.0313 ± 0.25 | 0.0229 ± 0.3 |
| GUCUAGCAAUAUUACGCGCU | -1.29 ± 0.19 | -0.353 ± 0.15 |
| ACCGAGCAAUAUUACGUUUC | -4.37 ± 0.29 | -2.94 ± 0.32 |
| CGGCAGCAAUAUUACGUCCC | -0.557 ± 0.23 | 0.728 ± 0.37 |

| Sequence | self-splicing fitness (ln) (30 °C) | self-splicing fitness (ln) (37 °C) |
| --- | --- | --- |
| GCCCAGCAAUAUUACGGGAG | -0.834 ± 0.057 | -0.496 ± 0.067 |
| AGGUAGCAAUAUUACGGCAA | -0.557 ± 0.017 | -0.339 ± 0.034 |
| UACGAGCAAUAUUACGAGGG | -1.82 ± 0.12 | -2.11 ± 0.27 |
| UAGCAGCAAUAUUACGAAGU | -1.64 ± 0.13 | -1.59 ± 0.3 |
| UAGAAGCAAUAUUACGCGUC | -2.53 ± 0.18 | -1.56 ± 0.18 |
| UAAGAGCAAUAUUACGGAGG | -3.41 ± 0.32 | -1.95 ± 0.46 |
| CUCUAGCAAUAUUACGGAGG | -2.14 ± 0.2 | -1.32 ± 0.21 |
| GUAGAGCAAUAUUACGCUUC | -3.16 ± 0.45 | -1.63 ± 0.27 |
| UCUCAGCAAUAUUACGGCAU | -2.27 ± 0.11 | -2.4 ± 0.16 |
| UAUUAGCAAUAUUACGUUGU | -3.93 ± 0.34 | -3.04 ± 0.4 |
| CUACAGCAAUAUUACGUUCU | -2.56 ± 0.12 | -2.42 ± 0.2 |
| GAGGAGCAAUAUUACGUGAC | -1.97 ± 0.3 | -0.137 ± 0.26 |
| GCUGAGCAAUAUUACGGCCG | -3.94 ± 0.32 | -2.37 ± 0.39 |
| CUUGAGCAAUAUUACGAAAG | -2.3 ± 0.25 | -3.32 ± 0.46 |
| UGCAAGCAAUAUUACGAUAU | -3.42 ± 0.2 | -0.49 ± 0.1 |
| GGCAAGCAAUAUUACGUUAA | -1.09 ± 0.1 | -0.115 ± 0.1 |
| ACCUAGCAAUAUUACGCUGC | -2.42 ± 0.12 | -1.06 ± 0.13 |
| AGUCAGCAAUAUUACGAGGG | -4.73 ± 0.31 | -3.06 ± 0.25 |
| GUGGAGCAAUAUUACGAUGA | -1.37 ± 0.19 | -1.39 ± 0.37 |
| CUGAAGCAAUAUUACGCAUU | -2.24 ± 0.12 | -2.45 ± 0.17 |
| AAAAAGCAAUAUUACGAAAC | -3.11 ± 0.22 | -2.36 ± 0.16 |
| GCCUAGCAAUAUUACGAUUU | -1.98 ± 0.092 | -1.34 ± 0.097 |

— the supplement of paper PMC7877785
